Reference: PMC4461284, “Different Modes of Transactivation of Bacteriophage Mu Late Promoters by Transcription Factor C”

B1: I promoter 92mer (dsDNA)
DNA 1: AATTCTTTCTTTCTCCAGTACTCAAATAGCATAACCCCAGATTTTCCCGCACCTCCCGCAAACTGACTGCTCACAAACCATGATGAGCAGCGG
DNA 2: GATCCCGCTGCTCATCATGGTTTGTGAGCAGTCAGTTTGCGGGAGGTGCGGGAAAATCTGGGGTTATGCTATTTGAGTACTGGAGAAAGAAAG
B2: P promoter 92mer (dsDNA)
DNA 1: AATTCACAGGGACAGTTACAGTTAACTGCCATAACCCCGGACGGCGGCTTTTCACAGGTATCCTTTTCAGACAGTGGTACAGCCACGCCCCG
DNA 2: GATCCGGGGCGTGGCTGTACCACTGTCTGAAAAGGATACCTGTGAAAAGCCGCCGTCCGGGGTTATGGCAGTTAACTGTAACTGTCCCTGTG
B3: lys promoter 92mer (dsDNA)
DNA 1: AATTCATCCTGCCGGTTATTTCCTGTCACCATAATCCCGCACCTGCCACCTGATTTTTTAGACTGCCATCAGAGAATTTTTTCAGGGAAGCG
DNA 2: GATCCGCTTCCCTGAAAAAATTCTCTGATGGCAGTCTAAAAAATCAGGTGGCAGGTGCGGGATTATGGTGACAGGAAATAACCGGCAGGATG
B4: tin7 P2-disrupted promoter 78mer (dsDNA)
DNA 1: AATTCCGGTTGCGCCCCAATAACCACACTCAACCCATGATGTTTGTTAAGATAGTGGCGAATTGATGCAAAGGAGGTG
DNA 2: GATCCACCTCCTTTGCATCAATTCGCCACTATCTTAACAAACATCATGGGTTGAGTGTGTGGTTATTGGGGCGCAACCGGG

Target: RNA polymerase (RNAP), WT (E. coli, UniProt P0A7Z4;P0A8V2;P0A8T7;P0A800;P00579 1-329;1-1342;1-1407;2-91;1-613)
Test: EMSA; no C protein; on ice (closed complex); EMSA: on ice 10 min, 3.5% native PAGE at 4 C; binding buffer not stated (transcription buffer: 40 mM Tris-Cl pH 8.0, 5 mM Mg acetate, 0.1 mM EDTA, 0.1 mM DTT, 100 mM KCl, 100 ug/ml BSA)
Conditions: protein: recombinant, (Ni-NTA purified), chain copies: 2;1;1;1;1, label: 5' 32P
[1] = 5' overhangs 4 nt (EcoRI AATT / BamHI GATC)

| Binder | binding result [1] | binding result (5' overhangs (EcoRI AATT / BamHI GATC)) |
| --- | --- | --- |
| B1 | binds | – |
| B2 | binds | – |
| B3 | binds | – |
| B4 | – | binds |
